The text below walks through data of US20150125463A1 (Bristol-Myers Squibb, published 2015).

The target in assay [1] is T1, human PD-1 (human, UniProt Q15116 25-288).
T1 construct: whole, on cells; also called hPD-1; Programmed Death-1
As to the kind of experiment: flow cytometry on CHO/PD-1 cells pre-incubated with 10 ug/mL hIgG1 control, 2D3 at 0.2 ug/mL, detection with FITC goat anti-hIgG Fc. (In general: A flow cytometer gives signals particle by particle.)

For assay [2], the target named is T1, human PD-1. As to the kind of experiment: flow cytometry on CHO/PD-1 cells pre-incubated with 10 ug/mL hIgG1 control, 4H1 at 0.2 ug/mL, detection with FITC goat anti-hIgG Fc.
In assay [3] the target is T1, human PD-1. Description: flow cytometry on CHO/PD-1 cells pre-incubated with hIgG control, FITC-labeled 17D8.
Assay [4] has as its target T2, human PD-L1 (on cells or in tissue) (human, UniProt Q9NZQ7 19-290).
T2 construct: whole, on cells; also called hPD-L1; Programmed Death Ligand-1
Description: competition flow cytometry on ES-2 cells: unlabeled Ab titrated, then biotin-12A4 at 0.4 ug/mL, streptavidin-PE.

Assay [5] addresses T1, human PD-1. As to the kind of experiment: flow cytometry on CHO/PD-1 cells pre-incubated with 10 ug/mL hIgG1 control, 7D3 at 0.2 ug/mL, detection with FITC goat anti-hIgG Fc.
Assay [6] deals with T2, human PD-L1 (on cells or in tissue). As to the kind of experiment: flow cytometry on CHO/PD-L1 cells pre-incubated with 10 ug/mL hIgG1, FITC-10H10 at 0.27 ug/mL. An excerpt: (§1) Different quantities of the various FITC-conjugated HuMAbs were used due to differences in binding efficiency following labeling, and the optimal amounts of these FITC-conjugated HuMAbs were previously determined by dose-titration analysis of binding to CHO/PD-L1 cells.

The target is the same in assay [7]. Description: flow cytometry competition on CHO/PD-L1 cells; unlabeled mAb at 10 ug/ml.
Source text: as §1

B1: anti-PD-1 HuMAb 2D3 (antibody, V domains shown)
VH: QVQLVESGGDVVQPGRSLRLSCAASGLTFTNYGFHWVRQAPGKGLEWVAVIWYDGSKKYYADSVKGRFTISRDNSKNTLYLQMNNLRAEDTAVYYCATGDDYWGQGTLVTVSS
VL: EIVLTQSPATLSLSPGERATLSCRASQSVSSYLAWYQQKPGQAPRLLIYDTSNRATGIPARFSGSGSGTDFTLTISSLEPEDFAVYYCQQRSNWPLTFGGGTKVEIK
notes: Human mAb
On to B1, for which the binding result with human PD-1 [1] is reported as “binds”.

B2: anti-PD-1 HuMAb 4H1 (antibody, V domains shown)
VH: QVYLVESGGGVVQPGRSLRLSCAASGFTFSNYGMHWVRQAPGKGLEWVALIWYDGSNKYYADSVKGRFTISRDNSKNTLYLQMTSLRVEDTAVYYCASNVDHWGQGTLVTVSS
VL: EIVLTQSPATLSLSPGERATLSCRASQSVSSYLAWYQQKPGQAPRLLIYDASNRATGIPARFSGSGSGTDFTLTISSLEPEDFAVYYCQQSSNWPRTFGQGTKVEIK
notes: Human mAb
On to B2, for which, in the assay with human PD-1 [2], the binding result was “binds”.

B3: anti-PD-1 HuMAb 17D8 (antibody, V domains shown)
VH: QVQLVESGGDVVQPGGSLRLSCAASGVAFSNYGMHWVRQAPGKGLEWVAVIWYDGSNKYYADSVKGRFTISRDNSKNMLYLQMNSLRAEDTAMYYCARNDDYWGQGTLVTVSS
VL: EIVLTQSPATLSLSPGERATLSCRASQSVSSYLAWYQQKPGQAPRLIIYDASNRATGIPARFSGSGSGTDFTLTISSLEPEDFAVYYCQQRSNWPLTFGGGTKVEIK
notes: Human mAb; also called FITC-labeled 17D8
Turning to B3, the binding result with human PD-1 [3] is given as “binds”.

B4: anti-PD-L1 HuMAb 3G10 (antibody, V domains shown)
VH: QVQLVQSGAEVKKPGASVKVSCKASGYTFTDYGFSWVRQAPGQGLEWMGWITAYNGNTNYAQKLQGRVTMTTDTSTSTVYMELRSLRSDDTAVYYCARDYFYGMDVWGQGTTVTVSS
VL: EIVLTQSPATLSLSPGERATLSCRASQSVSSYLVWYQQKPGQAPRLLIYDASNRATGIPARFSGSGSGTDFTLTISSLEPEDFAVYYCQQRSNWPRTFGQGTKVEIK
notes: Human mAb; Used unconjugated and FITC-conjugated
With B4, the “IC50 (read off the curve)” value in assay [4] was around 0.9 nM.

B5: anti-PD-1 HuMAb 7D3 (antibody, V domains shown)
VH: QVQLVESGGGVVQPGRSLRLSCTTSGITFSSYGFHWVRQAPGKGLEWVAVIWYDGSKKYYADSVKGRFTLSRDDSKNTLYLQMNSLRAEDTAVYYCVTGDDYWGQGTLVTVSS
VL: EIVLTQSPATLSLSPGERATLSCRASQSVSSYLAWYQQKPGQAPRLLIYDASNRATGIPARFSGSGSGTDFTLTISSLEPEDFAVYYCQQRSNWPLTFGGGTKVEIK
notes: Human mAb
As for B5, the binding result in the assay with human PD-1 [5] is “binds”.

B6: anti-PD-L1 HuMAb 10A5 (antibody, V domains shown)
VH: QVQLVQSGAEVKKPGASVKVSCKASGYTFTSYDVHWVRQAPGQRLEWMGWLHADTGITKFSQKFQGRVTITRDTSASTAYMELSSLRSEDTAVYYCARERIQLWFDYWGQGTLVTVSS
VL: DIQMTQSPSSLSASVGDRVTITCRASQGISSWLAWYQQKPEKAPKSLIYAASSLQSGVPSRFSGSGSGTDFTLTISSLQPEDFATYYCQQYNSYPYTFGQGTKLEIK
notes: as for B4
As for B6, in assay [4], the binding result is given as “binds”.

B7: anti-PD-L1 HuMAb 10H10 (antibody, V domains shown)
VH: EVQLVESGGGLVQPGRSLRLSCAVSGFTFDDYVVHWVRQAPGKGLEWVSGISGNSGNIGYADSVKGRFTISRDNAKNSLYLQMNSLRAEDTALYYCAVPFDYWGQGTLVTVSS
VL: DIQMTQSPSSLSASVGDRVTITCRASQGISSWLAWYQQKPEKAPKSLIYAASSLQSGVPSRFSGSGSGTDFTLTISSLQPEDFATYYCQQYNSYPYTFGQGTKLEIK
notes: as for B4
Turning to B7, the binding result in assay [6] is on record as “binds”.

B8: anti-PD-L1 HuMAb 1B12 (antibody, V domains shown)
VH: QVQLVQSGAEVKKPGSSVKVSCKTSGDTFSSYAISWVRQAPGQGLEWMGGIIPIFGRAHYAQKFQGRVTITADESTSTAYMELSSLRSEDTAVYFCARKFHFVSGSPFGMDVWGQGTTVTVSS
VL: not shown
notes: Human mAb
B8: the “IC50 (read off the curve)” value in assay [4] is around 0.2 nM.

B9: anti-PD-L1 HuMAb 7H1 (antibody, V domains shown)
VH: QVQLVQSGAEVKKPGSSVKVSCKTSGGTFSSYAISWVRQAPGQGLEWMGGIIPIFGKAHYAQKFQGRVTITADESTTTAYMELSSLRSEDTAVYYCARKYDYVSGSPFGMDVWGQGTTVTVSS
VL: not shown
notes: Human mAb
Turning to B9, in assay [7], the binding result is “binds”.
